According to patent US7070973B2, “Butyrylcholinesterase variants and methods of use” (priority 2000, dated 2006):
Positions count from the first letter of the chain named. Names and notes keep the numbering of the source. Values joined by “and” are separate entries in the source; they are usually repeats but may differ in a detail not shown here. Equal values may be shown once. Read-outs that look alike come from different tables or passages of the source.

B1: A328Y (protein, UniProt P06276 29-602, looked up, variant A328Y)
Cholinesterase: EDDIIIATKNGKVRGMNLTVFGGTVTAFLGIPYAQPPLGRLRFKKPQSLTKWSDIWNATKYANSCCQNIDQSFPGFHGSEMWNPNTDLSEDCLYLNVWIPAPKPKNATVLIWIYGGGFQTGTSSLHVYDGKFLARVERVIVVSMNYRVGALGFLALPGNPEAPGNMGLFDQQLALQWVQKNIAAFGGNPKSVTLFGESAGAASVSLHLLSPGSHSLFTRAILQSGSFNAPWAVTSLYEARNRTLNLAKLTGCSRENETEIIKCLRNKDPQEILLNEAFVVPYGTPLSVNFGPTVDGDFLTDMPDILLELGQFKKTQILVGVNKDEGTYFLVYGAPGFSKDNNSIITRKEFQEGLKIFFPGVSEFGKESILFHYTDWVDDQRPENYREALGDVVGDYNFICPALEFTKKFSEWGNNAFFYYFEHRSSKLPWPEWMGVMHGYEIEFVFGLPLERRDNYTKAEEILSRSIVKRWANFAKYGNPNETQNNSTSWPVFKSTEQKYLTLNTESTRIMTKLRAQQCRFWTSFFPKVLEMTGNIDEAEWEWKAGFHRWNNYMMDWKNQFNDYTSKKESCVGL
B2: S287G (protein)
chain: B1 Cholinesterase with S287G, Y328A
modifications: Human Butyrylcholinesterase variant
B3: P285Q (protein)
chain: B1 Cholinesterase with P285Q, Y328A
modifications: Human Butyrylcholinesterase variant
B4: P285S (protein)
chain: B1 Cholinesterase with P285S, Y328A
modifications: Human Butyrylcholinesterase variant
B5: butyrylcholinesterase (protein, listed as Homo sapiens)
chain: B1 Cholinesterase with Y328A
B6: Q119Y (protein, UniProt P06276 29-602, looked up, variant Q119Y)
Cholinesterase: B1 Cholinesterase with Q119Y, Y328A
B7: T120F (protein, UniProt P06276 29-602, looked up, variant T120F)
Cholinesterase: B1 Cholinesterase with T120F, Y328A
B8: V288F (protein, UniProt P06276 29-602, looked up, variant V288F)
Cholinesterase: B1 Cholinesterase with V288F, Y328A
B9: A328F (protein, UniProt P06276 29-602, looked up, variant A328F)
Cholinesterase: B1 Cholinesterase with Y328F
B10: A328I (protein, UniProt P06276 29-602, looked up, variant A328I)
Cholinesterase: B1 Cholinesterase with Y328I
B11: A328W (protein)
chain: MDSKVTIICIRFLFWFLLLCMLIGKSHTEDDIIIATKNGKVRGMNLTVFGGTVTAFLGIPYAQPPLGRLRFKKPQSLTKWSDIWNATKYANSCCQNIDQSFPGFHGSEMWNPNTDLSEDCLYLNVWIPAPKPKNATVLIWIYGGGFQTGTSSLHVYDGKFLARVERVIVVSMNYRVGALGFLALPGNPEAPGNMGLFDQQLALQWVQKNIAAFGGNPKSVTLFGESAGAASVSLHLLSPGSHSLFTRAILQSGSFNAPWAVTSLYEARNRTLNLAKLTGCSRENETEIIKCLRNKDPQEILLNEAFVVPYGTPLSVNFGPTVDGDFLTDMPDILLELGQFKKTQILVGVNKDEGTWFLVYGAPGFSKDNNSIITRKEFQEGLKIFFPGVSEFGKESILFHYTDWVDDQRPENYREALGDVVGDYNFICPALEFTKKFSEWGNNAFFYYFEHRSSKLPWPEWMGVMHGYEIEFVFGLPLERRDNYTKAEEILSRSIVKRWANFAKYGNPNETQNNSTSWPVFKSTEQKYLTLNTESTRIMTKLRAQQCRFWTSFFPKVLEMTGNIDEAEWEWKAGFHRWNNYMMDWKNQFNDYTSKKESCVGL
modifications: Human Butyrylcholinesterase variant
B12: Y332A (protein, UniProt P06276 29-602, looked up, variant Y332A)
Cholinesterase: B1 Cholinesterase with Y328A, Y332A
B13: Q119Y/V288F/A328Y (protein, UniProt P06276 29-602, looked up, variant Q119Y V288F A328Y)
Cholinesterase: B1 Cholinesterase with Q119Y, V288F
B14: G116W (protein, UniProt P06276 29-602, looked up, variant G116W)
Cholinesterase: B1 Cholinesterase with G116W, Y328A
B15: S224Y (protein, UniProt P06276 29-602, looked up, variant S224Y)
Cholinesterase: B1 Cholinesterase with S224Y, Y328A
B16: L286H (protein, UniProt P06276 29-602, looked up, variant L286H)
Cholinesterase: B1 Cholinesterase with L286H, Y328A
B17: L286W (protein, UniProt P06276 29-602, looked up, variant L286W)
Cholinesterase: B1 Cholinesterase with L286W, Y328A
B18: V288W (protein, UniProt P06276 29-602, looked up, variant V288W)
Cholinesterase: B1 Cholinesterase with V288W, Y328A
B19: A328G (protein, UniProt P06276 29-602, looked up, variant A328G)
Cholinesterase: B1 Cholinesterase with Y328G
B20: A328H (protein, UniProt P06276 29-602, looked up, variant A328H)
Cholinesterase: B1 Cholinesterase with Y328H
B21: G439L (protein, UniProt P06276 29-602, looked up, variant G439L)
Cholinesterase: B1 Cholinesterase with Y328A, G439L

Tests used:
[1] = Isotope tracer cocaine hydrolysis assay, Lineweaver-Burk plot; format: biochemical; details: 2 hour incubation at 37° C., x intercept of double-reciprocal plot
Excerpt: (§1) At the conclusion of the isotope tracer assay, an aliquot of the reaction mix is acidified in order to take advantage of the solubility difference between the product and the substrate at pH 3.0.

[2] = Gatley 1991; Xie et al. 1999; read-out: Km for cocaine hydrolysis, previously published values; cited from earlier work
[3] = test system: cocaine toxicity; details: infusion of cocaine at 1 mg/kg/min, catecholamine levels standardized; cited from earlier work
[4] = Spectrophotometric (240 nm) cocaine binding and hydrolysis assay with purified butyrylcholinesterase variants; format: biochemical; details: for Km / kcat (hydrolysis rate): (−)-cocaine; for Km: 0.1M potassium phosphate pH 7.0 at 30° C.; for kcat (hydrolysis rate): active sites titrated with chlorpyrifos oxon; for Cocaine Binding or Cocaine Hydrolysis (result in words): Table 4
Description: […]. Pharmacol. 41:1249–1254 (1991). Km values were determined in 0.1M potassium phosphate pH 7.0 at 30° C. for (−)-cocaine. Vmax values and Km values were calculated using Sigma Plot for Macintosh (Jandel Scientific, San Rafael, Calif.).
Once Vmax values and Km values were calculated, the number of active sites in each butyrylcholinesterase preparation was determined. The titration of active sites was performed with chlorpyrifos oxon (MET-674B, Chem Service, West Chester, Pa.), an inhibitor of butyrylcholinesterase. One molecule of chlorpyrifos oxon binds and inhibits one molecule of butyrylcholinesterase, which allows for calculation of the number of active sites. Based on the number of active sites, the kcat value for each variant was calculated (Table 3). […].

[5] = Xie et al. 1999; cited from earlier work
[6] = Microtiter [3H]-cocaine isotope tracer hydrolysis assay with immobilized butyrylcholinesterase variants; format: biochemical; details: for increase in cocaine hydrolysis activity compared to human butyrylcholinesterase: region 5 library variants, Examples II through VI; for enhanced cocaine hydrolase activity (library screen): region five library, hydrolysis of [3H]-cocaine
Excerpt: as §1
The supernatants isolated from each of the butyrylcholinesterase variant library clones contains variable butyrylcholinesterase enzyme concentrations.
At least three approaches are used to either increase the assay sensitivity or the assay signal.

[7] = stored at 4° C., after 18 months (Lynch et al.); cited from earlier work

Row | Molecule | Km [4] | kcat (hydrolysis rate) [4] | Cocaine Binding or Cocaine Hydrolysis (result in words) [4] | also measured
1 | horse butyrylcholinesterase | – | – | – | Km [1]: ~37.6 µM; Km [2]: 38 µM and 45 µM
2 | COC(=O)[C@H]1[C@@H](OC(=O)c2ccccc2)C[C@@H]2CC[C@H]1N2C [cocaine] | – | – | – | LD90 [3]: 16 mg/kg
3 | B1 | 9 µM | 0.17 s⁻¹ | – | Hydrolyzes cocaine faster than wild-type ([4]; compared to wild-type butyrylcholinesterase): Hydrolyzes cocaine 4 times faster than wild-type; increase in cocaine hydrolysis activity compared to human butyrylcholinesterase [5]: four
4 | B2 | – | – | – | increase in cocaine hydrolysis activity compared to human butyrylcholinesterase [6]: four; enhanced cocaine hydrolase activity (library screen) [6]: enhanced cocaine hydrolase activity
5 | B3 | – | – | – | increase in cocaine hydrolysis activity compared to human butyrylcholinesterase [6]: four and approximately four; enhanced cocaine hydrolase activity (library screen) [6]: enhanced cocaine hydrolase activity
6 | B4 | – | – | – | increase in cocaine hydrolysis activity compared to human butyrylcholinesterase [6]: approximately three; enhanced cocaine hydrolase activity (library screen) [6]: enhanced cocaine hydrolase activity
7 | B5 | – | – | – | original activity retained [7]: over 90%
8 | B6 | 56 µM | 0.0333 s⁻¹ | not a cocaine hydrolase | –
9 | B7 | 97 µM | – | not a cocaine hydrolase | –
10 | B8 | 17 µM | 0.0167 s⁻¹ | Not a cocaine hydrolase | –
11 | B9 | 24 µM | 0.0967 s⁻¹ | Not a cocaine hydrolase | –
12 | B10 | 11 µM | 0.0083 s⁻¹ | Not a cocaine hydrolase | –
13 | B11 | 10 µM | 0.62 s⁻¹ | – | –
14 | B12 | 240 µM | – | – | –
15 | B13 | 33 µM | 0.0383 s⁻¹ | Not a cocaine hydrolase | –
16 | B14 | – | – | no activity | –
17 | B15 | – | – | No activity | –
18 | B16 | – | – | Not a cocaine hydrolase | –
19 | B17 | – | – | Not a cocaine hydrolase | –
20 | B18 | – | – | Not a cocaine hydrolase | –
21 | B19 | – | – | Not a cocaine hydrolase | –
22 | B20 | – | – | Not a cocaine hydrolase | –
23 | B21 | – | – | No cocaine hydrolysis activity | –
